Measured values published in the nanobody polyreactivity screen of Harvey et al. (2022).

Assay: yeast display, Sf9 membrane polyspecificity reagent, FACS + sequencing; frameworks hold sequencing errors
Summary of the method: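 Sorting gates, low and high (top ~1%), were placed on anti-HA fluorescence to track expression and on streptavidin fluorescence to track reagent binding. A clone's polyreactivity label is taken from the gate it came out of. The reagent was 10% biotinylated, detergent-solubilized Sf9 membrane, applied for 1 hour at 4 °C to galactose-induced yeast display cells.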

| Sequence | polyreactivity (PSR sort gate) |
| --- | --- |
| QVQIVESGGGLVQAGGSLRLSCAASGNIFDRYAMGWYRQAPGKERELVAGITWSGGSTYYADSVKGRFTISRDNAKNTVYLQMNSLKPDDTAVYYCGQANYYWGLGTQVTVSS | low polyreactivity |
| QVQIVESGGGLVQAGGSLRLSCAASGRIFDGYAMGWYRQAPGKERELVAAISLSDGSTYYADSVKGRFTISRDHAKNTVYLQMNILKPEDTAVYYCAARVQHYLATDDYWGQGTQVTVSS | low polyreactivity |
| QVQIVESGGGLVQAGGSLRLSCAASGRIFGFNAMAWYRQAPGKERELVAAISWSSGRTYYADSVKGRFTISRDNAKNTVYLQMNSLKPEDTAVYYCAADQWGGGDDYWGQGTQVTVSS | high polyreactivity |
| QVQIVESGGGLVQAGGSLRLSCAASGRIFVVNDMGWYRPATGKERELVAAINSGGRTNYADSVKGRFTISRDNAKNTVDLQMNSLKREATAVYFCNAKRTGPWFLHVPVYYWGQGTQVTVSS | low polyreactivity |
| QVQIVESGGGLVQAGGSLRLSCAASGRIFYKNAMGWYRQAPGKERELVAAISNVGSTYYADSVKGRFTISRDNAKTTVYLQMNSLKPEDTAVYYCNKRIYHLFTYDFWGQGTQVTVSS | high polyreactivity |
| QVQIVESGGGLVQAGGSLRLSCAASGRILWFYAMGWYRHAPGKERELVAAITDSGGSTYYADSVKGRFTISRDNAKNPVYLQMNSLKPEDTAVYYCAADGDRYISGGGLAHYDYWGQGTQVNVSS | low polyreactivity |
| QVQIVESGGGLVQAGGSLRLSCAASGRTFRANAMGWYRQAPGKERELVAAIRTGTRTYYADSVKGRFTISRDNANNTVYFQMNSLKTVDSAVYYCAARYYHPYSHGYWQERDYWGQGTKVTVSS | high polyreactivity |
| QVQIVESGGGLVQAGGSLRLSCAASGRTFYFYVMGWYRQAPGKERELVAAISWSGTSTYYADSVKGRFTISRDNAKNTVYLQMNSLKPEDTAVYYCNGITRYDYWGQGTQVTVSS | low polyreactivity |
| QVQIVESGGGLVQAGGSLRLSCAASGRTFYLNAMGWYRQAPGKERELVAANRFSGGSTYYADSVKGRFTISRDNAQNTVYLQMNSLKPEDTAVYYCIAGADHALYPTVSEYGYWGQGTQVTVSS | low polyreactivity |
| QVQIVESGGGLVQAGGSLRLSCAASGSIFARMAMGWYRQAPGKEWELVAAITTGGITNYADSLKGLFTISRDNAKNTVYLQMNSLKPDDTAVYYCAATSWRYQQSTRYKGRRYYSWGQGTQVTVSS | high polyreactivity |
| QVQIVESGGGLVQAGGSLRLSCAASGSIFQGNPMGWYRQAPWKEREFVAAISWSGDSTYYADSVKGRFTISRDNAKYSVYLQMNSLKTEDTAVYYCGADPWDIYRRLSPGDHDYWGQCTQVTVSS | low polyreactivity |
| QVQIVESGGGLVQAGGSLRLSCAASGSIFQGYAMGWYRQAPGKERELVAAITNRGGNTYYADSVKGRFTISRDNAKYSVYLQMNSLKPEDTAVYYCAADPRYSHSFSGYYDYWGQGTQVTVSS | high polyreactivity |
| QVQIVESGGGLVQAGGSLRLSCAASGSIFSRNVMGWYRQAPGKERELVAAISRSGGRTYYADSVKGRFTISRDYAKNTVYLQMNSLKPEDTAVYYCNRDIGGTSVLDDYWGQGTQVTVSS | low polyreactivity |
| QVQIVESGGGLVQAGGSLRLSCAASGSIFVWYAMGWYRQAPGKERELVARITSGGRTNYADSVKGRFTISRDNAKNTVYLQMNSLKPEDTAVYYCAAGRVSWSPYYYWGQGTQVTVSS | high polyreactivity |
| QVQIVESGGGLVQAGGSLRLSCAASGSIFYRYAMGWYRQAPGKERQLVAAISSGGTTSYADSVKGRFTISRDNAKNTVYLQMNSLKPEDTAVYYCAAFAYGYRYKTYDYWGQGTQVTVSS | high polyreactivity |
| QVQIVESGGGLVQAGGSLRLSCAASGSTFDGNAMGWYRQAPGKERELVATINSDDSKNYSDSVKGSFTISRDNAKNTVYLQMNSLKPEDTAVYYCAAVVSVPELYDYWGQGTQVTVSS | low polyreactivity |
| QVQIVESGGGLVQAGGSLRLSCAASGSTFFANTMGWYRQAPGKERELVAAISWSSVRTYYADSVKGRFTISRDHAKNTVYLQMNSLKPEDTAVYYCAAYSRFRYDYWGQGTQVTVSS | high polyreactivity |
| QVQIVESGGGLVQAGGSLRLSCAASGSTFGGNAMGWYRQAPGKERELVASITSSGGSTYYADSVKGRFTISRDNAKNTVYLQMNSLKPEDTAVYYCAAGKWYRSPWKYDYWGQGTQVTVSS | low polyreactivity |
| QVQIVESGGGLVQAGGSLRLSCAASGSTFKWYAMGWYRQSTGKERQLVAAITSTDSTTYADSLKGRFTISRDNAKNTVYLHMNSLKPEDTAVYYCNRLYYHWYGGLDYWGLGTQVTVSS | high polyreactivity |
| QVQIVESGGGLVQAGGSLRLSCAASGSTFLSNAMGWYRQAPGKERELVATISFSGATYADSVKGRFTIARDNAKNTVYLQMNSLKPEDTAVYYCNRATLNYSGKGDTAYDYWGQGTQVTVSS | low polyreactivity |
| QVQIVESGGGLVQAGGSLRLSCAASGSTFSVYAMGWYRQAPGKDRELVVAIRSSGGSTYYAHSVKGRFTISRDNAKNTVYLQMNSLKPEDTAVYYCATRIIVGSYRYDYWGQATQVTVSS | low polyreactivity |
| QVQIVESGGGLVQAGGSLRLSCAASGSTFWYNAMGWYRQAPGKERELVAAITWTGDGTYYADSVKGRFTISRDNAKNTVYLQMNSLKPEDTAVYYCAAAYFQWSTSIVGLDAGYDYWGQGTQVNVSS | low polyreactivity |

| Sequence | polyreactivity (PSR sort gate) |
| --- | --- |
| QVQIVESGGGLVQAGGSLRLSCAASGSTFYRNAMGWYRQAPGKERELVAAIRWTGGNTYYADSVKGRFTISRDNAKNTVYLQMNSLKPEDTAVYYCAARSPLYGHGYWGQGTQVTVSS | high polyreactivity |
| QVQIVESGGGLVQAGGSLRLSCAASGSTVQYYAMGWYRQAPGKERELVAAISYTGGSTYYADSVKARFTISRDNAKNSVYLEMSSLKPEDTAVYYCAAGRRGSDTGTEYYWGQGTQVTVSS | high polyreactivity |
| QVQIVESGGGLVQAGGSLRLSCAASGSTYDHYTLGWYRQAPGKERELVAAINRIADSTYYADSVKGRFTNSRDNQKNTVYVQMTSLNPEDTAVYYCAARQFVYSSRIILYDYWGHGTQVTVSS | high polyreactivity |
| QVQIVESGGGLVQAGGSLRLSCAASGTFARYAMGWYRQAPRKERELVAAITRRGGNTYYADSVKGRFSISRDNAKNTVYLPMNSQKPEDTAVYYCAILGEDTNGYWGQGTQVTVSS | high polyreactivity |
| QVQIVESGGGLVQAGGSLRLSCAASGYIFIVYTMGWYRQAPGKERELVAAISSGGITDYADSVKGRFTLSRDNAKNTLYIQMTRLKPEDTAVYYWGQGTQVTVSS | low polyreactivity |
| QVQIVESGGGLVQAGGSLRLSCAASVRTFGRYVMGWYRQAPGKERELVAAISSGGRTYYADSVKGRFTISRDNAKNTVYLQMNSLKPEDNAVYYCAVYVAYLYSYYYWGQGTQVTVSS | low polyreactivity |
| QVQIVESGGGLVQAGGSLRLSCAPSGRIYGPYAIGLYRQEPGKERELDAAIRSGGSTNYADSVKGRFTISRDNAKNTVYLQMNSLNPEDTAVYYCNAVRHTYGYYSWGQGTQVTVSS | high polyreactivity |
| QVQIVESGGGLVQAGGSLRLSCASSGSTMPAYTMGWYRQAPGKERELVADISRRGGSTYYADSVKGRFTISRDNAKNNVYLHMNSLKPEDTPVYYCATTAKKSYDYWGQGTHVTVSS | high polyreactivity |
| QVQIVESGGGLVQAGGSLRLSCPASGLTFAWYAMGWYRQAPWTERELVAAINRSGGSTSYADSVKGRFTISRDNAMNTVYLQMNSLKPEDTAVYYCAAQLGYTTLGLIYWGQGTQVTVSS | low polyreactivity |
| QVQIVESGGGLVQAGGSLSLSCASSGSTIGDYAMGWYRQAPGKERELVAAINSGDSKNYADSVKGRFTISRDNAKNTVYLQMNSLKPEDTAVYYCAAEPLSISYVYYKYKYEYWGQGTQVTVSS | low polyreactivity |
| QVQIVESGGGLVQAVGSLRLSCAAYGSTFCANAMGCYRQAPGKERELVAAIRGTGGSTYADSVKGRFTISRDNAKNTVYLQMNSLKPEDTAVYYCNAKGRGWTAQYDYCGQGTQVTVSS | low polyreactivity |
| QVQIVESGGRLVQAGCSLRLSCAASGRIFTRYAMGWYRQAPGKERELVASIRHSGGSTYYADSVKGRFTISRDNAKNTVYLQMNSLKPEDTAVYYCAARGKKGTRYNYNYWGHGTQVTVSS | high polyreactivity |
| QVQIVESGGVLVQAGGSLRLRCAASGSTFNRYAMGWYRQAPGKERELVASITTSDSTNYADSVKGRFTISRDNAQNTVYLQMNRLKPEDTALYYCNAEVRGVWYTYDYWGQGTQVTVSS | low polyreactivity |
| QVQIVESGGVLVQPGGILRLSCAASGFTFDAYDMGWYRQAPGKERELVAANSWRGIDTTYADSVKWRFTISRDNAKNPVFLQMNSLKPEDTAVYYCAEFVSDATVGTSKGLDYWGQGTQVTVSS | low polyreactivity |
| QVQIVESGRGLVQAGGSLSLSCAASGNIFYRYTMGWYRQAPGKERELVAAISRTGGSTYYADSVKGRFTISRDNAKNTVYLQMNSLKPEDTAVYYCAVRYMDPPYFYSKRFGYWGQGTQVTVSS | high polyreactivity |
| QVQIVESRGGLVQAGGSLRLSCAASGSIIRYYVMGWYRQAPRKERELVASISYSVGRTYYADSVKGRFTISRDNAKNTVYLQMNSLKPEDSAVYYCASDRYWPYYSAYYTSYRMDYWGQGTQVTVSS | high polyreactivity |
| QVQIVESVGGLDQAGGSLRLSCAASGSKFVYYAIGSYRQAPAKERELVAAIDVSDGGTYYADSVKVRFSISRDNAKNTVYLQMNSLKPEVTAVYYCAADQGIDVPFICYDYWGQGTQVTVSS | high polyreactivity |
| QVQIVESVGGLFQAGGTLRLICAASGLTFRSYTMGWYRQAPGKERELVAAISSGGSTYYADSVKGRFTISRDNAKNTVYLQMNSLKPEDTAVYYCAARAPWPKWGYYYWGQGTQVTVSS | high polyreactivity |
| QVQIVESWGGLVQAGGSLRLSCDASGSIFTNANGWYRQAPGKERELVAAISSSGGSTYYADSVKGRFTISRDNAKNTVYLQMNSLKPEDTAVYYCAADHYGGRDYWGQGTQVTVSS | low polyreactivity |
| QVQLADSGGGLVQAGGSLRLICAASGTFGSNAMGWYIQAPGKERELVAAINSGGTTKYADSVKGRFTISRDNAKNTVYLQMNRLKPEDSALYYCNAREGVFSYTVAHDYWGQGTQVTVSS | low polyreactivity |
| QVQLAESGGCLVQAGGTLRLSCAASGSTSAKNVMGWYRQPPGKERELVAAISRSGGRTYYADSVKGRFTISRDNAKNTVFLQMNSLKPEVSAVYYCANDYGGYYSRYDYWGQGTQVTVSS | high polyreactivity |
